Substrate: Nc1nc(=O)c2c([nH]1)NCC1CN(c3ccc(C(=O)N[C@@H](CCC(=O)O)C(=O)O)cc3)CN21
Assay: Michaelis-Menten constant (Km) against thymidylate synthase

B1: Thymidylate synthase (Lactobacillus casei), P00469 (protein)
chain: MLEQPYLDLAKKVLDEGHFKPDRTHTGTYSIFGHQMRFDLSKGFPLLTTKKVPFGLIKSELLWFLHGDTNIRFLLQHRNHIWDEWAFEKWVKSDEYHGPDMTDFGHRSQKDPEFAAVYHEEMAKFDDRVLHDDAFAAKYGDLGLVYGSQWRAWHTSKGDTIDQLGDVIEQIKTHPYSRRLIVSAWNPEDVPTMALPPCHTLYQFYVNDGKLSLQLYQRSADIFLGVPFNIASYALLTHLVAHECGLEVGEFIHTFGDAHLYVNHLDQIKEQLSRTPRPAPTLQLNPDKHDIFDFDMKDIKLLNYDPYPAIKAPVAV
- Km: 14 µM
